From publication PMC8699279, “Exercise-Induced Irisin Decreases Inflammation and Improves NAFLD by Competitive Binding with MD2” (Cells, 2021)

Target: T1, recombinant human MD2 (human, UniProt Q9Y6Y9 19-160)
T1 construct: myeloid differentiation factor 2 (MD2), human, recombinant; No catalogue number is printed; PDB 2E56 was used only for docking; also called rhMD2; myeloid differentiation factor 2; source: bought: R&D Systems
T1 sequence: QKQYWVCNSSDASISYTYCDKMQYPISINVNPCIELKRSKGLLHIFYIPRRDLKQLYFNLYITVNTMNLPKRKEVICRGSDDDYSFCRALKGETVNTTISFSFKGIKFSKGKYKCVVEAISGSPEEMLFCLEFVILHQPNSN
Assay: SPR; Biacore T200, CM5 chip, target protein amine-coupled; irisin flowed at seven concentrations, 30 μL/min, 200 s association, 200 s dissociation, 25 °C, PBS with 0.5% P20; global fit with a 1:1 Langmuir model
Conditions: both partners purified

B1: recombinant irisin (ligand)
chain: DSPSAPVNVTVRHLKANSAVVSWDVLEDEVVIGFAISQQKKDVRMLRFIQEVNTTTRSCALWDLEEDTEYIVHVQAISIQGQSPASEPVLFKTPREAEKMASKNKDEVTMKE
modifications: Commercial recombinant protein (Phoenix Pharmaceuticals); catalogue number, host and glycosylation not stated. Limits are the conventional 112-aa mature irisin: residues 32-143 of the 212-aa FNDC5 …
Kd: 1.65 nM
